One assay has as its target T1, Human-IGF-I (human, UniProt P05019 49-118).
T1 construct: also called IGF-1
In words: competitive radioligand binding in solution (125I-IGF-I vs unlabeled IGF-I), immunoprecipitation with anti-IGFBP-2, one-site fit. The text has this:
(§1) Table 4 tabulates data showing the effect of mutagenesis on the affinity of IGFBP-2 for the IGFs. The HBD, ₁₇₉PKKLRP₁₈₄, was mutated to ₁₇₉PNNLAP₁₈₄ and the ₂₆₅RGD₂₆₇ domain was mutated to ₂₆₅RGE₂₆₇. Native and mutant IGFBP-2 were purified by IGF-I affinity chromatography and quantified by an IGFBP-2 ELISA or radioimmuno assay (RIA) as described in the Examples. IGF binding affinities of the modified IGFBP-2 mutants were similar to those of native IGFBP-2.
(§2) The impact of these exemplary mutations in IGFBP-2 were tested to see if they affected IGF binding affinity. Native, HBD and RGD-IGFBP-2 (all 2.5 ng) were incubated with either ¹²⁵I-IGF-I or -II (15,000 cpm) in the presence of increasing concentrations of unlabeled IGF-I or -II (0.0025-0.15 nM). Binding was for 2 h at room temperature in 100 μl binding buffer [BB; 50 mM sodium phosphate pH 7.4, 0.1 M NaCl, 0.05% (w/v) NaN3, 0.2% fatty acid free BSA (Sigma, Steinheim, Germany), 0.1% (v/v) Triton X-100]. […] Bound radioactivity in precipitates was quantified in a γ-counter. Each point was measured in quadruplicate. […]

Another assay deals with T2, IGF-II (UniProt P01344 25-91).
T2 construct: also called unlabeled IGF-II
Briefly: competitive radioligand binding in solution (125I-IGF-II vs unlabeled IGF-II), immunoprecipitation with anti-IGFBP-2, one-site fit.
Text: as §1, §2

T2 sequence (P01344 25-91 limits assumed): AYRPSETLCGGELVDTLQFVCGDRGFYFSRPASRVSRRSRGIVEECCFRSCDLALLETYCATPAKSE
T1 sequence (P05019 49-118 limits assumed): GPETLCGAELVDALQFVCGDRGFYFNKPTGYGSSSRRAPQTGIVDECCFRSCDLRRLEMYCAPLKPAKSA

B1: HBD-IGFBP-2 mutant (179PKKLRP184 mutated to 179PNNLAP184) (other)
chain: EVLFRCPPCTPERLAACGPPPVAPPAAVAAVAGGARMPCAELVREPGCGCCSVCARLEGEACGVYTPRCGQGLRCYPHPGSELPLQALVMGEGTCEKRRDAEYGASPEQVADNGDDHSEGGLVENHVDSTMNMLGGGGSAGRKPLKSGMKELAVFREKVTEQHRQMGKGGKHHLGLEEPNNLAPPPARTPCQQELDQVLERISTMRLPDERGPLEHLYSLHIPNCDKHGLYNLKQCKMSLNGQRGECWCVNPNTGKLIQGAPTIRGDPECHLFYNEQQEARGVHTQRMQ
notes: Positions are as printed; also called HBD modified IGFBP-2; PCS3
Broadly, the Kd is the concentration at which binding is half-saturated. Low readings indicate higher affinity, high ones lower affinity. For B1, the equilibrium dissociation constant (Kd) turned out to be 1.45 nM in the assay with Human-IGF-I and 0.52 nM in the assay with IGF-II.

These data come from patent publication US20080286287A1 (MURDOCH CHILDRENS RESEARCH INSTITUTE, published 2008).
